Assay results taken from paper PMC3380618.

B1: PMe-2 racemic (dsDNA)
DNA 1: TGTGTTGTAGGATATCCTACAGGT
DNA 2: ACCTGTAGGATATCCTACAACACA
modifications: racemic Rp,Sp methylphosphonate at P-2, symmetric in both strands
B2: FRET 14 bp GATATC (dsDNA)
DNA 1: AGAAGATATCTTGA
DNA 2: TCAAGATATCTTCT

Key:
EcoRV K119A = EcoRV K119A (UniProt P04390 2-245, K119A); assay: filter binding
[1] = target: EcoRV endonuclease wild type (UniProt P04390 2-245); assay: FRET

Row | Binder | Kd (EcoRV K119A) [pM] | binding result [1]
1 | B1 | 1.1 | –
2 | B2 | – | binds
